Measured values taken from PMC6211770, “Structure-guided disruption of the pseudopilus tip complex inhibits the Type II secretion in Pseudomonas aeruginosa” (PLoS Pathogens, 2018).

Target: T1, XcpX (29–313), soluble form (P. aeruginosa, UniProt Q00518 29-313)
T1 construct: minor pseudopilin XcpX (GspK) of Pseudomonas aeruginosa, soluble form, residues 29-313; buffers with XcpX held 1 mM CaCl2; The XcpVWX complex was digested in situ with chymotrypsin before crystallisation; also called XcpX^(GspK); GspK; source: E. coli BL21 (DE3), purified (Ni2+-NTA, TEV digestion, Superdex 75); not shown: thioredoxin (Trx), N-terminal, cleaved
T1 sequence: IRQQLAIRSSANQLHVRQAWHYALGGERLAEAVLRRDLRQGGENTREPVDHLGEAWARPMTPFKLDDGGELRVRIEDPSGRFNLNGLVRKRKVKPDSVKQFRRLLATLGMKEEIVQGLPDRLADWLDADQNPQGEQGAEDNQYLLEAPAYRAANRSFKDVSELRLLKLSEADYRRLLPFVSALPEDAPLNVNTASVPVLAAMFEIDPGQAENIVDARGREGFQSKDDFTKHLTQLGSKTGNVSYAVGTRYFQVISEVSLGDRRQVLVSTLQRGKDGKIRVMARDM
Assay: SAXS with inline SEC; XcpUVWX complex at 6.15 mg/ml in 25 mM HEPES pH 7.0, 150 mM NaCl, 5% glycerol, 2 mM DTT
Details: both partners purified

B1: XcpV (28–129), soluble form (domain or fragment)
chain: SASARSLQNASRLEDKTLAMWIADNRLNELQLEQTPPSSGRNQGELEFAGRRWEWRTQVDSTAEQDMRRVIVWVAAKPLGRERGSIEERAAARLVGFLGSQP
notes: minor pseudopilin XcpV (GspI) of Pseudomonas aeruginosa, soluble form, residues 28-129; The XcpVWX complex was digested in situ with chymotrypsin before crystallisation; the chains in PDB 5VTM may be shorter; also called XcpV^(GspI); GspI; source: E. coli BL21 (DE3), purified (Ni2+-NTA, TEV digestion, Superdex 75); not shown: thioredoxin (Trx), N-terminal, cleaved
**Q.** Does B1 bind?
**A.** Result: binds
